Results from US20250276077A1 (IMMUNOME, published 2025).
Changes are numbered by the printed parent chain. One block for each binder: values may come before it.

Key:
[1] = target: T1, Human EphA2 (ephrin receptor A2) on cells (human, UniProt P29317 25-976); test: cell-based or functional assay
[2] = target: T1, Human EphA2 (ephrin receptor A2) on …; test: cell-based or functional assay; remark: listed apart in the source

T1 sequence (P29317 25-976): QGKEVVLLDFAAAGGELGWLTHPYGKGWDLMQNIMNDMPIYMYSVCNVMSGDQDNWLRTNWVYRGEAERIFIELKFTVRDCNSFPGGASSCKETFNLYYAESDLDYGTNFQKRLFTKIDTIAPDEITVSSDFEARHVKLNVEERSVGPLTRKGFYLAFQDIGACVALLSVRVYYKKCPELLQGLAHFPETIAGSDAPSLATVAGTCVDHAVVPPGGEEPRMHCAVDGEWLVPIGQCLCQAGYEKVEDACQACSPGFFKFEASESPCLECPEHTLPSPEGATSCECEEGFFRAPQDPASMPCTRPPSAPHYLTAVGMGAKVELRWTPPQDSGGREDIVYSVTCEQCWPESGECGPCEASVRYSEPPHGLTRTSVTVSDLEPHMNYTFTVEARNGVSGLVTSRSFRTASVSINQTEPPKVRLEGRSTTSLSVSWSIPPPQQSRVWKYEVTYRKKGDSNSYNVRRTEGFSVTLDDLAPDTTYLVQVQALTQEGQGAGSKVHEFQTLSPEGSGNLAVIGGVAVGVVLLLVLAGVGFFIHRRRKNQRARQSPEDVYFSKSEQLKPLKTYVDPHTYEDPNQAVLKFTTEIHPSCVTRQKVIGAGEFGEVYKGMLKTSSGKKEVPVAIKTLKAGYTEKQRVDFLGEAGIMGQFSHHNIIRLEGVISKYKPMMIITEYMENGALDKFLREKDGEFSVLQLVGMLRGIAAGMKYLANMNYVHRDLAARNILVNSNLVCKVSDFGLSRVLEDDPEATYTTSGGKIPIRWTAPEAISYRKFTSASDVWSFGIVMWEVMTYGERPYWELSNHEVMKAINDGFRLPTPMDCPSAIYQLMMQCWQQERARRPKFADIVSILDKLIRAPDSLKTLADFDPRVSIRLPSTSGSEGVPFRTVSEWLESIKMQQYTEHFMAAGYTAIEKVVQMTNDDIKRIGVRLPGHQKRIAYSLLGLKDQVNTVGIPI

B1: AB-010358 (antibody, mouse IgG2a, V domains shown)
VH: QVQLQQWGAGLLKPSETLSLTCAVYGGSFSDYYWSWIRQPPGKGLEWIGEINHRGSINYNNYNPSLKSRVTISVDTSKNQFSLKLSSVTAADTAVYYCAKPLRPHCTNGVCYSGDAFDIWGQGTMVTVAS
VL: SYVLTQPPSVSVAPGQTARITCGGNNIGSKNVHWYQQKPGQAPVLVVYDDSDRPSGIPERFSGSNSGNTATLTISRVEAGDEADYYCQVWDSSSDHLVFGGGTKLTVL
ADCC EC50 [1]: 73.3 nM | ADCC Fold-improved (against AB-008873) [1]: 0.47 fold

B2: AB-010680 (antibody, V domains shown)
VH: B1 VH with D31G
VL: B1 VL with S29Y, K30M, R60Q, L97V
ADCC - EC50 (nM), Trial 1, A549 [2]: ~0.081 nM | ADCC - EC50 (nM), Trial 2, A549 [2]: 0.031 nM

B3: AB-010365 (antibody, V domains shown)
VH: B1 VH with D31G, R54A
VL: B1 VL with L97V
ADCC EC50 [1]: 34.6 nM | ADCC Fold-improved (against AB-008873) [1]: 1.01 fold

B4: AB-010688 (antibody, V domains shown)
VH: B1 VH with D31G
VL: B1 VL with S29Y, R60Q, S93E, L97V
ADCC - EC50 (nM), Trial 1, A549 [2]: ~0.052 nM | ADCC - EC50 (nM), Trial 2, A549 [2]: 0.032 nM

B6: AB-010677 (antibody, V domains shown)
VH: B1 VH with D31G
VL: B1 VL with G23R, K30M, R60Q, L97V
ADCC - EC50 (nM), Trial 1, A549 [2]: 1.6 nM

B8: AB-010360 (antibody, mouse IgG2a, V domains shown)
VH: B1 VH with D31G
VL: B1 VL with R60Q
ADCC EC50 [1]: 4.3 nM | ADCC Fold-improved (against AB-008873) [1]: 8.09 fold

B9: AB-010678 (antibody, V domains shown)
VH: B1 VH with D31G
VL: B1 VL with G23R, R60Q, S92H, L97V
ADCC - EC50 (nM), Trial 1, A549 [2]: ~0.14 nM | ADCC - EC50 (nM), Trial 2, A549 [2]: 0.047 nM

B13: AB-010690 (antibody, V domains shown)
VH: B1 VH with D31G
VL: B1 VL with G23R, S29Y, L97V
ADCC - EC50 (nM), Trial 1, A549 [2]: 0.19 nM

B14: AB-010672 (antibody, V domains shown)
VH: B1 VH
VL: B1 VL with R60Q, S93R, L97V
ADCC - EC50 (nM), Trial 1, A549 [2]: 12.4 nM

B15: AB-010366 (antibody, mouse IgG2a, V domains shown)
VH: B1 VH with D31G, R54Q
VL: B1 VL with R60Q, L97V
ADCC EC50 [1]: 28.9 nM | ADCC Fold-improved (against AB-008873) [1]: 1.2 fold

B17: AB-010362 (antibody, mouse IgG2a, V domains shown)
VH: B1 VH with D31G
VL: B1 VL
ADCC EC50 [1]: 12.8 nM | ADCC Fold-improved (against AB-008873) [1]: 2.72 fold

B18: AB-010685 (antibody, V domains shown)
VH: B1 VH with D31G, T107I
VL: B1 VL with S29Y, R60Q, S92H, L97V
ADCC - EC50 (nM), Trial 1, A549 [2]: < 0.03 nM | ADCC - EC50 (nM), Trial 2, A549 [2]: 0.0057 nM

B19: AB-010676 (antibody, V domains shown)
VH: B1 VH with D31G
VL: B1 VL with G23R, S29Y, R60Q, L97V
ADCC - EC50 (nM), Trial 1, A549 [2]: ~0.1 nM | ADCC - EC50 (nM), Trial 2, A549 [2]: 0.039 nM

B21: AB-010692 (antibody, V domains shown)
VH: B1 VH with D31G
VL: B1 VL with G23R, S92H, L97V
ADCC - EC50 (nM), Trial 1, A549 [2]: 0.21 nM

B22: AB-010679 (antibody, V domains shown)
VH: B1 VH with D31G, T107I
VL: B1 VL with S29Y, R60Q, L97V
ADCC - EC50 (nM), Trial 1, A549 [2]: ~0.15 nM | ADCC - EC50 (nM), Trial 2, A549 [2]: 0.04 nM

B25: AB-010674 (antibody, V domains shown)
VH: B1 VH
VL: B1 VL with S29Y, R60Q, S93E, L97V
ADCC - EC50 (nM), Trial 1, A549 [2]: ~0.13 nM | ADCC - EC50 (nM), Trial 2, A549 [2]: 0.1 nM

B26: AB-010673 (antibody, V domains shown)
VH: B1 VH
VL: B1 VL with R60Q, S93E, L97V
ADCC - EC50 (nM), Trial 1, A549 [2]: 3.9 nM

B27: AB-010359 (antibody, V domains shown)
VH: B1 VH
VL: B1 VL with L97V
ADCC EC50 [1]: 25.3 nM | ADCC Fold-improved (against AB-008873) [1]: 1.38 fold

B28: AB-010689 (antibody, V domains shown)
VH: B1 VH with D31G, T107I
VL: B1 VL with G23R, L97V
ADCC - EC50 (nM), Trial 1, A549 [2]: 2.5 nM

Other lines, results leading:

ADCC - EC50 (nM), Trial 1, A549 [2]: < 0.03 nM | ADCC - EC50 (nM), Trial 2, A549 [2]: 0.0079 nM
B5: AB-010681 (antibody, V domains shown)
VH: B1 VH with D31G
VL: B1 VL with S29Y, R60Q, S92H, L97V

ADCC EC50 [1]: 14.5 nM | ADCC Fold-improved (against AB-008873) [1]: 2.4 fold
B7: AB-010364 (antibody, mouse IgG2a, V domains shown)
VH: B1 VH with D31G, R54A
VL: B1 VL with R60Q, L97V

ADCC - EC50 (nM), Trial 1, A549 [2]: ~0.14 nM | ADCC - EC50 (nM), Trial 2, A549 [2]: 0.046 nM
B10: AB-010683 (antibody, V domains shown)
VH: B1 VH with D31G
VL: B1 VL with K30M, R60Q, S92H, L97V

ADCC - EC50 (nM), Trial 1, A549 [2]: ~0.14 nM | ADCC - EC50 (nM), Trial 2, A549 [2]: 0.048 nM
B11: AB-010684 (antibody, V domains shown)
VH: B1 VH with D31G, T107I
VL: B1 VL with R60Q, S92H, L97V

ADCC - EC50 (nM), Trial 1, A549 [2]: 6.4 nM
B12: AB-010686 (antibody, V domains shown)
VH: B1 VH with D31G
VL: B1 VL with R60Q, S93R, L97V

ADCC EC50 [1]: 42.7 nM | ADCC Fold-improved (against AB-008873) [1]: 0.81 fold
B16: AB-010367 (antibody, V domains shown)
VH: B1 VH with D31G, R54Q
VL: B1 VL with L97V

ADCC - EC50 (nM), Trial 1, A549 [2]: 2.8 nM
B20: AB-010687 (antibody, V domains shown)
VH: B1 VH with D31G
VL: B1 VL with R60Q, S93E, L97V

ADCC - EC50 (nM), Trial 1, A549 [2]: 3.2 nM
B23: AB-010682 (antibody, V domains shown)
VH: B1 VH with D31G, T107I
VL: B1 VL with K30M, R60Q, L97V

ADCC - EC50 (nM), Trial 1, A549 [2]: 2.2 nM
B24: AB-010691 (antibody, V domains shown)
VH: B1 VH with D31G
VL: B1 VL with G23R, K30M, L97V

ADCC - EC50 (nM), Trial 1, A549 [2]: 1.5 nM
B29: AB-010675 (antibody, V domains shown)
VH: B1 VH with D31G, T107I
VL: B1 VL with G23R, R60Q, L97V
